This passage reports background-corrected fluorescence results from the supplement of paper PMC9428881.

The nature of the data set: background-corrected fluorescence of 3'-dye-labeled ssDNA relative to brightest sequence (3'-GCGCG) (fraction); higher = brighter dye fluorescence (less quenching). In short, it runs like this: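 Subtracting background from unlabeled oligos and scaling to the brightest sequence gave the reported fluorescence. Single-stranded DNA bearing a 3' Cy3 or Cy5 dye next to each of 1024 permuted pentamers was assembled on glass slides by light-directed phosphoramidite synthesis. Following a 2 h r.t. acetonitrile wash, slides were scanned at 532 or 635 nm before and after overnight ethylenediamine/ethanol deprotection, and values were averaged over 10 features per array and at least 3 syntheses.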

± gives the standard error.

As to “TTTTTTGATCATGCTGAGCATTTTTTTTTTTTTTTCGACT [TCAGC]”, the background-corrected fluorescence runs as follows: (dye: Cy3 (3' terminal)) 0.488 ± 0.019; (dye: Cy5 (3' terminal)) 0.363 ± 0.028.
As for “TTTTTTGCTCAGCATCATGATTTTTTTTTTTTTTTAGTGC [CGTGA]”, the background-corrected fluorescence (dye: Cy3 (3' terminal)) is 0.518 ± 0.047 and the background-corrected fluorescence (dye: Cy5 (3' terminal)) is 0.405 ± 0.024.
As to “TTTTTTGATCATCATGCTGATTTTTTTTTTTTTTTCGGAC [CAGGC]”, the background-corrected fluorescence stood at 0.531 ± 0.011 (dye: Cy3 (3' terminal)) and 0.389 ± 0.034 (dye: Cy5 (3' terminal)).
With “TTTTTTCATGCTCATGAGCATTTTTTTTTTTTTTTGAGCT [TCGAG]”, the background-corrected fluorescence worked out at 0.559 ± 0.024 (dye: Cy3 (3' terminal)) and 0.41 ± 0.022 (dye: Cy5 (3' terminal)).
The corresponding values for “TTTTTTGCTGATGCTCAGCATTTTTTTTTTTTTTTACAGT [TGACA]” are 0.629 ± 0.039 and 0.474 ± 0.03.
On to “TTTTTTGCTGATGCTGATGCTTTTTTTTTTTTTTTACACA”, for which the background-corrected fluorescence runs as follows: (dye: Cy3 (3' terminal)) 0.469 ± 0.022; (dye: Cy5 (3' terminal)) 0.374 ± 0.031.
The corresponding values for “TTTTTTCATGAGCATGCTCATTTTTTTTTTTTTTTGCTAG [GATCG]” are 0.57 ± 0.036 and 0.422 ± 0.053.
For “TTTTTTGATGCTGATCATGATTTTTTTTTTTTTTTCACGC [CGCAC]”, in that order: 0.536 ± 0.021 and 0.438 ± 0.036.
As to “TTTTTTGCTCAGCATCATCATTTTTTTTTTTTTTTAGTGG [GGTGA]”, the background-corrected fluorescence stood at 0.625 ± 0.034 (dye: Cy3 (3' terminal)) and 0.546 ± 0.076 (dye: Cy5 (3' terminal)).
In the case of “TTTTTTGCGCATGCTGCTCATTTTTTTTTTTTTTTATAAG [GAATA]”, the background-corrected fluorescence reads like this: (dye: Cy3 (3' terminal)) 0.532 ± 0.019; (dye: Cy5 (3' terminal)) 0.429 ± 0.031.
As to “TTTTTTGCTGCTGCGCATCATTTTTTTTTTTTTTTAAATG [GTAAA]”, the background-corrected fluorescence runs as follows: (dye: Cy3 (3' terminal)) 0.499 ± 0.015; (dye: Cy5 (3' terminal)) 0.375 ± 0.035.
As for “TTTTTTGCTCATCATGATGATTTTTTTTTTTTTTTAGGCC [CCGGA]”, the background-corrected fluorescence reads like this: (dye: Cy3 (3' terminal)) 0.479 ± 0.037; (dye: Cy5 (3' terminal)) 0.368 ± 0.064.
Regarding “TTTTTGCATCATGCGCATGATTTTTTTTTTTTTTTTGATC [CTAGT]”, the background-corrected fluorescence runs as follows: (dye: Cy3 (3' terminal)) 0.442 ± 0.024; (dye: Cy5 (3' terminal)) 0.335 ± 0.028.
For the sequence “TTTTTTCAGCATGATGCTGCTTTTTTTTTTTTTTTGTCAA [AACTG]”, the background-corrected fluorescence by setting is: (dye: Cy3 (3' terminal)) 0.609 ± 0.012; (dye: Cy5 (3' terminal)) 0.453 ± 0.04.
The corresponding values for “TTTTTTCATGCTCATGCTCATTTTTTTTTTTTTTTGAGAG” are 0.6283 ± 0.0056 and 0.492 ± 0.024.
The corresponding values for “TTTTTTGATGCTGCGCATGATTTTTTTTTTTTTTTCAATC [CTAAC]” are 0.421 ± 0.026 and 0.284 ± 0.013.
For “TTTTTTCAGCATCATGATGCTTTTTTTTTTTTTTTGTGCA [ACGTG]”, in that order: 0.589 ± 0.02 and 0.483 ± 0.028.
As for “TTTTTGCATCAGCAGCAGCATTTTTTTTTTTTTTTTGTTT”, the background-corrected fluorescence stood at 0.511 ± 0.028 (dye: Cy3 (3' terminal)) and 0.396 ± 0.06 (dye: Cy5 (3' terminal)).
In the case of “TTTTTTCAGCATGCGCATCATTTTTTTTTTTTTTTGTATG”, the background-corrected fluorescence runs as follows: (dye: Cy3 (3' terminal)) 0.57 ± 0.011; (dye: Cy5 (3' terminal)) 0.419 ± 0.027.
For “TTTTTTGATCATGATGCTGCTTTTTTTTTTTTTTTCGCAA [AACGC]”, in that order: 0.552 ± 0.031 and 0.443 ± 0.035.
The corresponding values for “TTTTTTGCGCATCATGATGATTTTTTTTTTTTTTTATGCC [CCGTA]” are 0.436 ± 0.0052 and 0.319 ± 0.02.
For the sequence “TTTTTGCATGCTCAGCAGCATTTTTTTTTTTTTTTTAGTT [TTGAT]”, the background-corrected fluorescence was found to be 0.592 ± 0.023 (dye: Cy3 (3' terminal)) and 0.411 ± 0.032 (dye: Cy5 (3' terminal)).
As for “TTTTTGCATGATGATGCGCATTTTTTTTTTTTTTTTCCAT [TACCT]”, the background-corrected fluorescence is 0.477 ± 0.025 (dye: Cy3 (3' terminal)) and 0.344 ± 0.024 (dye: Cy5 (3' terminal)).
Regarding “TTTTTTGATGAGCATGCGCATTTTTTTTTTTTTTTCCTAT [TATCC]”, the background-corrected fluorescence was found to be 0.486 ± 0.018 (dye: Cy3 (3' terminal)) and 0.361 ± 0.028 (dye: Cy5 (3' terminal)).
